From patent US20140178378A1 come the findings set out here.

The assay addresses IL-6/sIL-6R complex. Nature of the assay: cell-based or functional assay.

“wild type sgp130Fc (from UniProt P40189 23-619) (Fc fusion)” displayed an IC50, inhibition of IL-6/sIL-6R-induced proliferation of BAF3/gp130 cells (MTS cell viability assay, 3 days) of 0.8 µg/mL.
